Experimental data taken from US20230040008A1, “ANTI-HER2 POLYPEPTIDES DERIVATIVES AS NEW DIAGNOSTIC MOLECULAR PROBES” (BRACCO IMAGING S.P.A., priority 2019, published 2023).
“Also recorded” adds a separate entry of the source.

Assays:
[1] = biological target: T1, recombinant human protein hHER2 (R&D Systems) (human, UniProt P04626 23-652); assay: BLI (Octet), hHER2 on Protein A biosensors, steady state analysis
T1 construct: also called human HER2 (hHER2) recombinant protein

[2] = biological target: T2, HER2/Fc chimeric protein (Homo sapiens, UniProt P04626); assay: Competitive ELISA of Aff02 versus trastuzumab-biotin or pertuzumab-biotin; format: binding
T2 construct: Fc (immunoglobulin Fc fusion partner)
Description: A competitive ELISA assay has been developed in order to investigate if the epitope of the HER2/Neu antigen recognized by Aff02 polypeptide was distinct from the epitope recognized by the humanized monoclonal antibodies trastuzumab and pertuzumab, actually used in therapeutic treatments of HER2-positive tumors.
The first experiment, aimed at evaluating the quality of the assay, was a competitive ELISA assay carried out between trastuzumab and trastuzumab-biotin. Briefly, a Medisorp transparent plastic plate (96 wells, Thermo Scientific), was coated (64 wells) with 2.5 μg/mL of HER2/Fc chimeric protein in TBS pH 7.4 (1 h, RT). The wells were blocked with 0.5% BSA in TBS (1 h, RT).
At the end of the incubation, the plate was washed three times with 250 μL of TBS-T and incubated with Streptavidin-HRP 1:10000 in TBS-T (1 h at RT). The plate was washed again 3 times with TBS-T and developed 5 min with TMB reagent (100 μL). The reaction was blocked with 50 μL of sulfuric acid 2 M and read at 450 nm.
As positive control, the same experiment was repeated using an antibody anti RSGH TAG-HRP (1:4000) in place of streptavidin-HRP, in order to evaluate the curve affinity of Aff02 to HER2 receptor.
Briefly, a Medisorp transparent plastic plate (96 wells, Thermo Scientific) was coated (64 wells) with 2.5 μg/mL of Her2/Fc chimeric protein in TBS pH 7.4 (1 h, RT). The wells was blocked with 0.5% BSA in TBS (1 h, RT). […] At the end of the incubation, the plate was washed three times with 300 μL of TBS-T and incubated with Streptavidin-HRP 1:10000 or anti-RSGH TAG-HRP 1:4000 in TBS-T (1 h at RT). The plate was washed again 3 times with TBS-T and developed 5 min with TMB reagent (100 μL). The reaction was blocked with 50 μL of sulfuric acid 2 M and read at 450 nm.

[3] = set-up: species or system Balb/c nu/nu mice; details: mouse, in vivo
Protocol: In vivo imaging experiments were performed using the IVIS Spectrum In Vivo Imaging System (Perkin Elmer Inc.), equipped with 10 narrow band excitation filters (30 nm bandwidth) and 18 narrow band emission filters (20 nm bandwidth) spanning 430-850 nm.
In vivo optical imaging biodistribution of IRDye800CW-Aff02 was evaluated in healthy mice. Optical Imaging experiments on three healthy mice were performed using an IVIS Spectrum system after administration of IRDye800CW-Aff02 at a dose of 10 nmol/mouse, in an administration volume of 0.2 mL. The experiments were carried out at 15 min, 30 min, 1 h, 2 h, 4 h, 6 h, 24 h and 48 hours after intravenous administration of the conjugate.
Regions of interest (ROIs) were drawn on a reference background healthy region (hind leg's muscle) of the mouse and on whole body for each fluorescence image at every time point to evaluate signal intensity in the tissues, expressed as Average Radiant Efficiency (see FIG. 5, reporting the fluorescence signal curves of IRDye800CW-Aff02 administered 10 nmol/mouse in Balb/c nu/nu mice).
Pharmacokinetic analysis of the signal was performed to evaluate the half time of the tested product by using a mono-exponential decay model and the results are reported in Table 3:
After sacrifice, several organs were collected for the measure of residual fluorescence (after 48h). The measurements of fluorescence signal intensity have been obtained from the analysis of each organ selecting an area of interest (ROIs) at the center of each sample. The analyzed organs were: kidney, lung, spleen, liver, muscle and heart.

[4] = biological target: T3, human HER2 (hHER2) recombinant protein (Homo sapiens, UniProt P04626); assay: Biolayer interferometry (BLI) affinity assay on protein A biosensors coated with hHER2; details: 1:1 binding fit model
T3 construct: purchased R&D Systems
Protocol: (§1) Affinity experiments were performed by Biolayer Interferometry (BLI) assay, using an Octet System and Protein A biosensors (ForteBio). Recombinant human protein hHER2 was purchased from R&D Systems (Minneapolis, US).
(§2) The affinity of the polypeptides of the invention for the target HER2 was measured by Biolayer interferometry assay. To this purpose, the protein A biosensors (ForteBio) were coated with human HER2 (hHER2) recombinant protein. After a brief wash with PBS, the coated sensor was assayed versus the affitin Aff02-0 at different concentrations (i.e. […], 500, 250, 125, 62.5, 31.3, 15.6 and 0 nM).
A curve fitting analysis was then performed in order to determine the dissociation equilibrium constant. The sensorgrams were analyzed using the Octet Data Analysis software 8.2 (ForteBio) with a 1:1 binding fit model to determine the dissociation equilibrium constant (Kd) and the related association and dissociation rate constants (kon and koff) with R^2 value assessing the fitting quality.
The affinity of the IRDye800CW-Aff02 conjugate to the target HER2 was measured by Biolayer interferometry assay. To this purpose, the protein A biosensors (ForteBio) were coated with human HER2 (hHER2) recombinant protein. After a brief wash with PBS, the coated sensor was assayed versus the IRDye800CW-Aff02 conjugate at different concentrations (i.e. 10000, 1000, 100, 10, 1, 0.1 ng/mL).
A steady state analysis was performed in order to determine the dissociation equilibrium constant. The sensorgrams were analyzed using the Octet Data Analysis software 8.2 (ForteBio) with a 1:1 binding fit model to determine the dissociation equilibrium constant (Kd).

[5] = biological target: T1, recombinant human protein hHER2 (R&D …); assay: BLI (Octet), hHER2 on Protein A biosensors, 1:1 fit
Protocol: as §1, §2
A curve fitting analysis was then performed in order to determine the dissociation equilibrium constant. The sensorgrams were analyzed using the Octet Data Analysis software 8.2 (ForteBio) with a 1:1 binding fit model to determine the dissociation equilibrium constant (Kd) and the related association and dissociation rate constants (kₒₙ and koff) with R² value assessing the fitting quality.

[6] = tested on: human (HSA), murine (MSA) and bovine (BSA) serum albumin; assay: ELISA control of binding to serum albumins during selection
Description: (§3) To selectively target HER2 receptor, a library of affitins has been enriched against the target by several consecutive rounds of screening (up to 6 rounds). The enrichment of anti-HER2 affitins has been followed after any selection round by ELISA assay monitoring, also controlling the condition of negligible binding to human (HSA), murine (MSA) and bovine (BSA) serum albumin.

[7] = tested on: MCF-7 breast cancer cell line (low expressing HER2 receptor); assay: Cell internalization assay (viability with Pe38 fusion), HER2 low expressing cells; format: cell-based; details: Aff01 tested as fusion Aff02-0/Pe38 (SEQ ID NO: 5); different nanofitin concentrations
Protocol: (§4) The cells internalization of Aff01 was evaluated using a dedicated cell-based assay. Briefly, Aff01 was tagged with SEQ ID NO: 3 (i.e. forming sequence Aff02-0) and then fused to a truncated portion of Pseudomonas exotoxin A, wherein the cell internalization domain of the toxin is removed, thus forming a final peptide with the sequence as set out in SEQ ID NO: 5. Such truncated form (Pe38) needs to be internalized by means of the Aff01 to keep its cytotoxic activity.
(§5) To test internalization, then, the viability of the breast adenocarcinoma cell line SK-BR-3 (overexpressing HER2 receptor) and of the breast cancer cell line MCF-7 (low expressing HER2 receptor) was measured at different nanofitin concentrations.

[8] = tested on: SK-BR-3 breast adenocarcinoma cell line (overexpressing HER2 receptor); assay: Cell internalization assay (viability with Pe38 fusion), HER2 overexpressing cells; format: cell-based
Protocol: as §4, §5

[9] = biological target: HER2 (Homo sapiens, UniProt P04626); assay: ELISA monitoring of anti-HER2 affitin selection; format: binding; details: end of selection process
Description: as §3

B1: IRDye800CW-Aff02 conjugate (designed binder)
chain: MRGSHHHHHHGSVKVKFWGAGVEKEVDTSKITWVTRSGKYVIFTYDDNGKAGPGRVPEKDAPKELLDMLARAEREKC
modifications: chain 1 pos 77: Cys carrying IRDye800CW through a maleimide thioether, written C
notes: Aff02 was reduced with TCEP, then coupled to IRDye800CW-maleimide at the C-terminal Cys
With B1 the Kd [1] was 1.6 nM.

B2: Aff02: 77 aac variant of SEQ ID NO: 1 with a Cys at the C-terminus and a hexahistidine tag at the N-terminus (protein)
chain: B1 chain
In the case of B2, the “competition with trastuzumab and pertuzumab for binding to HER2, assay c / overall” value ([2]; antibody-biotin curves in presence or absence of Aff02, FIGS. 4a, 4b) is reported as “no competition; also recorded: do not compete for binding to HER2”, the “binding to HER2 receptor (ELISA)” value ([2]; assay a, FIG. 2) is reported as “binders for HER2 receptor” and the “Aff02 response (anti RSGH-Tag Ab detection) with increasing trastuzumab-biotin or pertuzumab-biotin, assay b” value ([2]; fixed 10 μg/mL Aff02, variable antibody-biotin, FIGS. 3a, 3b) is reported as “negligible response decrease”. The “epitope competition, assay a” value ([2]; variable Aff02 (0.01-10000 ng/mL) with 0.2 μg/mL trastuzumab-biotin or pertuzumab-biotin, FIG. 2) was “epitopes recognized by trastuzumab and pertuzumab are different from that recognized by Aff02”.

B3: IRDye800CW-Aff02: fluorophore IRDye800CW-maleimide conjugated to the C-terminal cysteine of affitin Aff02 (conjugate)
chain: B1 chain
modifications: cyclised or stapled
In the case of B3, the clearance pathway [3] is reported as “preferably cleared by the renal pathway”, the “Half life in muscle” value ([3]; iv) is reported as 2.122 h and the “Half life in whole body” value ([3]; iv) is reported as 2.196 h. The “average half-life (muscle and whole body)” value ([3]; iv) was 2.16 h and the “Kd (dissociation equilibrium constant) of the complex IRDye800CW-Aff02 conjugate/hHER2” value ([4]; steady state analysis) was “in the nanomolar range”.

B4: affitin Aff02-0 (designed binder)
chain: MRGSHHHHHHGSVKVKFWGAGVEKEVDTSKITWVTRSGKYVIFTYDDNGKAGPGRVPEKDAPKELLDMLARAEREK
notes: also called unlabeled Aff02-0 affitin
In the case of B4, the koff ([4]; unlabeled affitin) is reported as 8.3 ± 0.1 × 10^−3 s^−1, the kon ([4]; unlabeled affitin) is reported as 4.5 ± 0.1 × 10^5 M^−1s^−1 and the Kd [5] is reported as 18 nM. The koff [5] was 0.0083 s⁻¹ and the kon [5] was 450000 M⁻¹ s⁻¹.

B5: Aff01: 64 aac anti-HER2 affitin, SEQ ID NO: 1 (protein)
chain: VKVKFWGAGVEKEVDTSKITWVTRSGKYVIFTYDDNGKAGPGRVPEKDAPKELLDMLARAEREK
For B5, the binding to albumin [6] was “absence of binding to albumin”, the “alteration of cell viability on MCF-7 cells” value [7] was “no significant alterations” and the “cytotoxic induction (cell viability) on SK-BR-3 cells” value ([8]; Aff01 tested as fusion Aff02-0/Pe38 (SEQ ID NO: 5), different nanofitin concentrations) was “dose-dependent cytotoxic induction”. The “cell internalization through HER2 receptor” value ([8]; concluded from cell death induction by Pe38 fusion) was “effective transport of Pe38 through HER2 receptor” and the “affinity to HER2” value [9] was “nanomolar affinity”.
